For experiment [1], the target named is T1, Haemophilus influenzae IhfB, modified B4 (mB4) fragment (Haemophilus influenzae).
T1 construct: Synthetic 20-mer peptide; also called IhfB frag. mB4
T1 peptide: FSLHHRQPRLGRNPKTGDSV
The experiment in a line: ELISA (FIG. 2B). Background: ELISA stands for enzyme-linked immunosorbent assay.

Experiment [2] deals with T2, Haemophilus influenzae IhfA, A5 fragment (Haemophilus influenzae).
T2 construct: Synthetic 20-mer peptide; also called IhfA frag; A5
T2 peptide: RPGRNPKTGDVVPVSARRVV
The experiment in a line: ELISA, peptide-coated plate (FIG. 2B/2C).

B1: monoclonal antibody mIhfB4 NTHI (hybridoma mIhfB4 NTHI 12E6.F8.D12.D5, ATCC PTA-122335) (antibody, V domains shown)
VH: EVQLQESGAELVRSGASVKLSCTASGFNIKDYYMHWVKQRPEQGLEWIGWIDPENDDTEYVPKFQGKASMTADTSSNTAYLQLSSLTSEDTAVYYCTELGAYWGQGTLV
VL: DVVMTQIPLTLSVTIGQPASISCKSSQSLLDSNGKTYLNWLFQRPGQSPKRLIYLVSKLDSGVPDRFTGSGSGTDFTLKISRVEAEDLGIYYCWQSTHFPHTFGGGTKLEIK
notes: 17; also called Ihf mB4; mB4
With B1, the binding result in experiment [1] is listed as “binds”.

B2: monoclonal antibody IhfA5 NTHI (hybridoma IhfA5 NTHI 14G8.F5.G6, ATCC PTA-122334) (antibody, V domains shown)
VH: EVQLQESGPGLVTPSQSLSMTCTVSGFSLTSYSVHWVRQPPGKSLEWLGVIWAGGSTNYNSALMSRLSISKDNSKSQVFLKMDSLQTDDTAIYYCAREDSWGQGTSVTVSS
VL: DIVMTQSQKFMSTSVGDRVSVTCKASQNVGTNVAWYQQKPGQSPKALIYSASYRYSGVPDRFTGSGSGTDFTLTISNVQSEDLAEYFCQQYNSYPTFGGGTKLEIK
notes: 13; also called mAb IhfA5NTHI
As for B2, the binding result in experiment [2] is “binds”.

(Values after US20190000971A1 (RESEARCH INSTITUTE AT NATIONWIDE CHILDREN S HOSPITAL, published 2019).)
